Molecular target: T1, Ac-FQPKKS(Ac)G-NH2 (alkylated acetyl-lysine analog of peptide 1)
T1 chain: FQPKXG

B1: human sirtuin 2 (SIRT2) enzyme (protein)
chain: MAEPDPSHPLETQAGKVQEAQDSDSDSEGGAAGGEADMDFLRNLFSQTLSLGSQKERLLDELTLEGVARYMQSERCRRVICLVGAGISTSAGIPDFRSPSTGLYDNLEKYHLPYPEAIFEISYFKKHPEPFFALAKELYPGQFKPTICHYFMRLLKDKGLLLRCYTQNIDTLERIAGLEQEDLVEAHGTFYTSHCVSASCRHEYPLSWMKEKIFSEVTPKCEDCQSLVKPDIVFFGESLPARFFSCMQSDFLKVDLLLVMGTSLQVQPFASLISKAPLSTPRLLINKEKAGQSDPFLGMIMGLGGGMDFDSKKAYRDVAWLGECDQGCLALAELLGWKKELEDLVRREHASIDAQSGAGVPNPSTSASPKKSPPPAKDEARTTEREKPQ
deacetylation rate (SIRT2 assay, C18 analytical HPLC) (fold of the rate on the native peptide): 0.33
enzymatic deacetylation (SIRT2 assay, HPLC peak of the deacetylated product): the sLys(Ac) residue in the alkylated peptide 1 was susceptible to enzymatic deacetylation, albeit to a lesser degree, compared to its native counterpart

— US9309278
